The record followed here is patent publication US20240190986A1 (ZHEJIANG NANOMAB TECHNOLOGY CENTER, published 2024).

By EC50 is commonly meant the midpoint of the concentration-response curve. Read a high EC50 as a need for much substance. As usually defined, the Kd is the concentration at which binding is half-saturated. Higher therefore signals weaker binding. Usually koff stands for the rate constant with which the complex falls apart. High values mean fast dissociation, low ones slow dissociation. By kon is commonly meant the second-order rate constant of association. Lower therefore signals slow association.

B1: M119-IgG4 (antibody, V domains shown)
VH: EVQLVESGGGLVQPGGSLRLSCVASGSDLSFDAMGWYRQFSATVRERQLVVATSRDGRIYYGDSVKGRFTASRDNLKNSVDLEMNNLKPEDTAIYYCAAGDDPKNYDWGPGTQVTVSS
notes: also called M119 heavy chain antibody
B2: M129-IgG4 (antibody, V domains shown)
VH: QVQLVESGGGSAQAGGSLILSCVASANLFTIDALGWYRQAPGPKRELVAAISSGGNKYYADAVKGRFTISRDTLTKTMWLQMNNLKPEDTAMYYCAAEDYGLGQRSWGMGTQVTVSS
notes: also called M129 heavy chain antibody
B3: M003-IgG4 (antibody, V domains shown)
VH: QVQLVESGGGLVQAGGSLRLSCTASGNIFSINAMGWYRQPPGKEWERELVATISSTNSDNTYYKESVKGRFTISTNTAKNTWYLQMNSLKPEDTAMYYCAAENFDRKDRYWAQGTQVTVSS
notes: also called M003 heavy chain antibody
B4: M344-IgG4 (antibody, V domains shown)
VH: QVQLVESGGGLVQSGGSLRLSCVASGSAFSFDAMGWYRQFSATRRERQLVVATSRDGRTYYADSVKGRFTATRDNSKNSLYLEMNSLKPEDTAIYYCAAGDDPKNYSWGQGTQVTVSS
notes: also called M344 heavy chain antibody
B5: M156-IgG4 (antibody, V domains shown)
VH: QVQLVESGGGLVQAGGSLRLSCAVSGISFEYYAIGWFRQAPGKEREAVSCTTSGTTSGGGVTDYADSLKGRFTISRDVAKNTVYLQMNNLTPEDTAVYYCAADIHCRGYVLFVPSDFGNWGQGTQVTVSS
notes: also called M156 heavy chain antibody
B6: M044-IgG4 (antibody, V domains shown)
VH: QVQVVESGGGFVQAGGSLRLSCAASTPIISIAYMGWYRQISEKERQLVATINSGGKTYYADSVKGRFTISRDNAKNTLYLQMNMLKPEDTGMYYCAASNKDYNDYDPDWGQGTQVTVSS
notes: also called M044 heavy chain antibody
B7: M143 (VHH)
VHH: EVQLVESGGGLVQAGGSLRLSCSASEKTFSIKYMGYYRQGPGIERKLVATIDTDGKTWYADSVKGRFTISRENGENEIGLEMNRLKPEDTAMYYCAGETGTYPKPEYWGQGTQVTVSS
notes: Nanoantibody in TG1 supernatant in the screening ELISA; also called clone M143
B8: M210 (VHH)
VHH: QVQLVESGGGLVQPGGSLRLSCAASGITLDNYAIAWFRQAPGKKREGVSCISSNGNTYYQPSVKGRFTIARDNAKNTVYLHMNNLNPEDTAVYYCQVGQFSSSTTPVQAMSVMSLYADWGQGTQVTVSS
notes: Nanoantibody in TG1 supernatant in the screening ELISA; also called clone M210
B9: M197 (VHH)
VHH: EVQLVESGGGLVQAGGSLRLSCAASGSHFGLNVVGWYRQAPGKQRELVASIGNSGRTTDYADSVKGRFTISKDNAQNTIYLQMNNLKPEDTAMYRCHLRVSVERGYWGQGTQVTVSS
notes: Nanoantibody in TG1 supernatant in the screening ELISA; also called clone M197
B10: M137 (VHH)
VHH: QVQLVESGGGLVQAGGSLSLSCAASGSLSSINAMGWYRQLPEMRQLVATMGSDGKTYYADSVKGRFTISRDYAKYTVSLQMNNLRPEDTAIYYCAADRFGAPIHDVDYWGKGTLVTVSV
notes: Nanoantibody in TG1 supernatant in the screening ELISA; also called clone M137
B11: M344 (VHH)
VHH: B4 VH
notes: Nanoantibody in TG1 supernatant in the screening ELISA; also called clone M344
B12: M169 (VHH)
VHH: EVQLVESGGGTVQPGESLRLSCEASGAVSTINAMGWYRQTPEMRKLVATMGSGGNTYYADSVKGRFTISRDFAGNTVDLQMNDLKPEDTGVYFCAADKFGADIKEVAYWGKGTLVTVSS
notes: Nanoantibody in TG1 supernatant in the screening ELISA; also called clone M169
B13: M004 (VHH)
VHH: EVQLVESGGGLVQAGGSLRLSCAASESISSIAYMGWYRRISEKERNLVATISSTGSTYYADSVKGRFTISRDNAKNTMYLQMNRLKPEDTAIYYCAASNKAYNDYDPDWGQGTQVTVSS
notes: Nanoantibody in TG1 supernatant in the screening ELISA; also called clone M004
B14: M156 (VHH)
VHH: B5 VH
notes: Nanoantibody in TG1 supernatant in the screening ELISA; also called clone M156
B15: M191 (VHH)
VHH: QVQLVESGGGLVQAGGSLRLSCAASASMGSISNMGWYRQAPGKERGNERNLVATIGSDGRTYYADSVKGRFTISRDNVKNTMILQMNFLKPEDTAMYYCAVEDRQRPGTENYYWGQGTQVTVSS
notes: Nanoantibody in TG1 supernatant in the screening ELISA; also called clone M191
B16: M224 (VHH)
VHH: QVQLVESGGGLVQPGGSLRLSCAASGFTFHYYAIGWFRQAPGKEREGVSCISSSGDSTWFSDSVKGRFTVSRDNAKNIVHLQMNNLKPEDTAVYYCAGTTRSGYVCYDAEPYDSWGQGTQVTVSS
notes: Nanoantibody in TG1 supernatant in the screening ELISA; also called clone M224
B17: M2339 (VHH)
VHH: QLQLGASGGGLVQPGGSLRLSCALSGFTLRELDEFAIGWFRQAPGKEREGVSCISGTGGITHYADSVKGRFTISRDIAKTTVYLQMNSLNSEDTAVYYCAADERCTDRLIRPPTYWGQGTQVTVSS
notes: Nanoantibody in TG1 supernatant in the screening ELISA; also called clone M2339
B18: M2339-IgG4 (antibody, V domains shown)
VH: B17 VHH
notes: also called M2339 heavy chain antibody

T4 sequence (Q13421 other isoform, or with tags, fused parts or gaps limits assumed): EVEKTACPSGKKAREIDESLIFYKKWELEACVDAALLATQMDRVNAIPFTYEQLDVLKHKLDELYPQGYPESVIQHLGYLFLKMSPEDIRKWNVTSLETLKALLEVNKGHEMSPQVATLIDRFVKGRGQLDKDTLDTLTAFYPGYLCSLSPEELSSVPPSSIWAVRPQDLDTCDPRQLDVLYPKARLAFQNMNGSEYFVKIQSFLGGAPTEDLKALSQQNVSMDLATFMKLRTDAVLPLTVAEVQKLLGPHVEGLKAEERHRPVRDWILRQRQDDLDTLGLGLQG
T5 sequence (Q13421 495-606 limits assumed): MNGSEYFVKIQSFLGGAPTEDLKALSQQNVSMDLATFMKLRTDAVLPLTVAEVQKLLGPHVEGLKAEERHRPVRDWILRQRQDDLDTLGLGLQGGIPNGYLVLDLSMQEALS
T1 sequence (Q13421 other isoform, or with tags, fused parts or gaps limits assumed): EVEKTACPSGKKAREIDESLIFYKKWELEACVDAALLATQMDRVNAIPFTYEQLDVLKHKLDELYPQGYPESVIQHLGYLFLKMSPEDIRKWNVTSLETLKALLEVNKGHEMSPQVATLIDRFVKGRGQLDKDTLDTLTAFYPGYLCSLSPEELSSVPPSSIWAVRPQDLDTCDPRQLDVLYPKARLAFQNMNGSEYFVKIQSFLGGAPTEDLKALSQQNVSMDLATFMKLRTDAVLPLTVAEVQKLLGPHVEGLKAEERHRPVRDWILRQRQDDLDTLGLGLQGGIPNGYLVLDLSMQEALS

One experiment concerns the target T1, MSLN on SKOV3 and Aspc-1 tumor cells (UniProt Q13421 296-598).
T1 construct: whole, on cells; Endogenous mesothelin of tumor cell lines; also called SKOV3 tumor cell line; AsPC-1 tumor cell line
Briefly: flow cytometry on SKOV3 tumor cells, anti-human IgG PE secondary, fitted curve. For orientation: Flow cytometry measures light scatter and fluorescence of single cells or particles in a stream.
Consider B1, for which the EC50 was found to be 1.63 nM.

B2 came in with an EC50 of 1.85 nM.

Take B3: the EC50 turned out to be 1.62 nM. This EC50 and that of the molecule before are within 1.5-fold of each other.

Molecule B4 yielded an EC50 of 1.36 nM.

In the case of B5, the concentration for a half-maximal effect (EC50) is 1.05 nM. This EC50 and that of the molecule before are within 1.5-fold of each other.

The molecule B6 gave an EC50 of 0.512 nM.

The next experiment addresses T2, MSLN.Fc protein (human, UniProt Q13421 296-598, limits assumed).
T2 construct: also called MSLN·hFc; MSLN protein; not shown: human IgG Fc fragment
Briefly: ELISA, antigen coated, TG1 supernatant.
For B7, the “ELISA (OD450)” value stood at 1.62 OD450.

Consider B8, for which the “ELISA (OD450)” value worked out at 1.95 OD450.

Take B9: the “ELISA (OD450)” value worked out at 1.21 OD450.

For B10, the “ELISA (OD450)” value is 1.27 OD450.

With B11, the “ELISA (OD450)” value came to 2.22 OD450.

On to B12, for which the “ELISA (OD450)” value came to 1.36 OD450.

Turning to B13, the “ELISA (OD450)” value was determined as 1.1 OD450.

In the case of B14, the “ELISA (OD450)” value is 1.67 OD450.

Consider B15, for which the “ELISA (OD450)” value came to 1.69 OD450.

For B16, the “ELISA (OD450)” value came out at 1.45 OD450.

The target of the next experiment is T3, MD50 protein.
T3 construct: range 487-580; also called proximal membrane fragment of mesothelin
T3 sequence (Q13421 495-588): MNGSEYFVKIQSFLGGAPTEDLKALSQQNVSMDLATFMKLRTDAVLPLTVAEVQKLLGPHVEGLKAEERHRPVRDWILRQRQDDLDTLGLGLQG
Description: ELISA, antigen coated, TG1 supernatant.
As to B7, the “ELISA (OD450)” value was determined as 1.3 OD450.

Take B8: the “ELISA (OD450)” value is 0.823 OD450.

Turning to B9, the “ELISA (OD450)” value stood at 1.69 OD450.

Turning to B10, the “ELISA (OD450)” value was 2.09 OD450.

As to B11, the “ELISA (OD450)” value was 2.08 OD450.

Regarding B12, the “ELISA (OD450)” value worked out at 1.19 OD450.

Regarding B13, the “ELISA (OD450)” value was 1.81 OD450.

As to B14, the “ELISA (OD450)” value was 1.53 OD450.

Consider B15, for which the “ELISA (OD450)” value came out at 1.71 OD450.

B16: the “ELISA (OD450)” value was 1.78 OD450.

Another experiment concerns the target T4, MSLN·His protein (human, UniProt Q13421 296-580, limits assumed).
T4 construct: Bought protein; also called human MSLN·His antigen; not shown: His tag
Description: ELISA, antigen coated, TG1 supernatant. Background: An ELISA detects its analyte on a solid surface through an enzyme-linked reagent.
With B17, the “ELISA (OD450)” value was 2.15 OD450.

In another experiment the target is T1, MSLN on SKOV3 and Aspc-1 tumor cells. Description: flow cytometry on Aspc-1 tumor cells, anti-human IgG PE secondary, fitted curve.
B1 displayed an EC50 of 4.25 nM.

With B2, the EC50 was 2.79 nM.

Consider B3, for which the EC50 stood at 5.31 nM.

Take B4: the EC50 worked out at 3.59 nM.

As for B5, the EC50 worked out at 5.37 nM.

B6 displayed an EC50 of 17.4 nM. Against the preceding molecule, the EC50 is about 3.2-fold higher.

A further experiment concerns the target T5, segment III of MSLN expressed on HEK293T cells (UniProt Q13421 487-598, limits assumed).
T5 construct: domain: segment III of MSLN; also called HEK293T MSLN-III cells; MSLN segment III protein overexpressing cell line
Briefly: flow cytometry on HEK293T cells expressing MSLN segment III, anti-human IgG PE secondary, fitted curve.
For B1, the EC50 was 3.91 nM. This counts as single-digit nanomolar.

Molecule B2 yielded an EC50 of 6.24 nM.

With B3, the midpoint of the response, the EC50, lay at 4.95 nM.

In turn, B4 yielded an EC50 of 3.39 nM.

B5 showed an EC50 of 4.15 nM.

In turn, B6 had an EC50 of 10.6 nM.

The next experiment concerns the target T4, MSLN·His protein. Description: SPR (Biacore), antibody captured on protein A, MSLN·His as analyte. The protocol: (1) Detection of affinity at protein level: the binding kinetics and affinity of heavy chain antibody to human MSLN·His antigen were determined using surface plasmon resonance (SPR). The purified antibody was flowed through the sensor chips pre-immobilized with protein A, and the antibody was captured by protein A. Then five different concentrations of MSLN·His protein were used as the mobile phase, and the binding time and dissociation time were 30 min and 60 min, respectively. Biacore Evaluation Software 2.0 (GE) was used to analyze the binding rate (kon, or ka), dissociation rate (koff, or kd) and equilibrium constant (KD). The rabbit antibody YP218, which binds to segment III of mesothelin, was selected as a positive control (Zhang et al., Sci Rep 2015, 21; 5:9928).
B1: binding was put at a Kd of 0.12 nM, the koff stood at 9.58e-05 s⁻¹ and the kon amounted to 826000 M⁻¹ s⁻¹.

As to B18, binding was characterised by a dissociation constant (Kd) of 0.264 nM, the koff amounted to 1.82e-05 s⁻¹ and the kon was determined as 69000 M⁻¹ s⁻¹.

For B2, the Kd came to 0.04 nM, the koff was 5.37e-05 s⁻¹ and the kon was found to be 1.4e+06 M⁻¹ s⁻¹.

The molecule B3 yielded a Kd of 0.49 nM, a koff of 0.000429 s⁻¹ and a kon of 882000 M⁻¹ s⁻¹.

On to B4, for which the Kd turned out to be 0.07 nM, the koff is 2.35e-05 s⁻¹ and the kon stood at 359000 M⁻¹ s⁻¹.

For the molecule B5, binding was characterised by a dissociation constant (Kd) of 0.09 nM, the koff was 5.4e-05 s⁻¹ and the kon was found to be 592000 M⁻¹ s⁻¹.

In turn, B6 yielded a Kd of 2.1 nM, a koff of 7.5e-05 s⁻¹ and a kon of 53700 M⁻¹ s⁻¹.
